Data: the Human Domainome abundance scans (Beltran et al. 2025)
± gives the uncertainty stated by the source.

B1: Death-inducer obliterator 1, residues 263 to 321; numbered along this chain, Q9BTC0 (parent)
chain: GYDPNALYCICRQPHNNRFMICCDRCEEWFHGDCVGISEARGRLLERNGEDYICPNCTI

Variants of: B1
Experiment: abundance fitness (aPCA) (normalised: wild type 0, dead -1); higher = more abundant; growth selection in yeast, the domain comes from the species named
Conditions: Homo sapiens

Abundance fitness: each site, then its substitutions
E46: C 0.155 ± 0.13 | P -0.189 ± 0.12 | N -0.009 ± 0.19 | Q -0.218 ± 0.21 | G -0.089 ± 0.087 | F -0.16 ± 0.1 | S -0.064 ± 0.09 | T 0.106 ± 0.11 | I -0.265 ± 0.12 | L -0.109 ± 0.083 | M -0.055 ± 0.071 | Y 0.065 ± 0.17 | A 0.163 ± 0.12 | K 0.079 ± 0.088 | V 0.044 ± 0.063 | R 0.021 ± 0.066 | W -0.265 ± 0.2 | H -0.663 ± 0.45
D33: R -0.002 ± 0.052 | H -0.101 ± 0.072 | T 0.008 ± 0.066 | S -0.048 ± 0.059 | W -0.237 ± 0.063 | Q -0.127 ± 0.11 | Y 0.13 ± 0.082 | C -0.013 ± 0.068 | K -0.028 ± 0.078 | A -0.154 ± 0.078 | L -0.047 ± 0.045 | G -0.027 ± 0.04 | V -0.198 ± 0.054 | N -0.259 ± 0.075 | E -0.026 ± 0.077 | P -0.136 ± 0.059 | M -0.195 ± 0.08
H31: Y -0.732 ± 0.17 | W -0.507 ± 0.11 | V -0.664 ± 0.093
E50: R -0.273 ± 0.13 | H -0.006 ± 0.24 | W -0.356 ± 0.2 | S -0.192 ± 0.094 | F -0.019 ± 0.21 | D -0.005 ± 0.13 | Y -0.58 ± 0.16 | K 0.04 ± 0.26 | T 0.037 ± 0.14 | C -0.461 ± 0.17 | M -0.157 ± 0.11 | G -0.046 ± 0.099 | P 0.068 ± 0.14 | N -0.027 ± 0.13 | L -0.201 ± 0.094 | I -0.14 ± 0.12 | V -0.041 ± 0.11 | A -0.011 ± 0.11
R43: W -0.132 ± 0.17 | Q 0.059 ± 0.14 | A 0.143 ± 0.15 | M 0.017 ± 0.12 | P 0.182 ± 0.078 | L 0.029 ± 0.064 | E 0.133 ± 0.12 | I 0.081 ± 0.095 | G 0.103 ± 0.092 | D -0.292 ± 0.2 | N 0.044 ± 0.2 | F -0.318 ± 0.097 | Y -0.044 ± 0.089 | C 0.188 ± 0.13 | H 0.154 ± 0.18 | S 0.114 ± 0.059 | K 0.057 ± 0.2 | T -0.049 ± 0.11 | V -0.202 ± 0.097
E39: Y -0.22 ± 0.098 | N -0.017 ± 0.073 | T -0.213 ± 0.08 | P -0.257 ± 0.086 | L -0.055 ± 0.062 | I -0.226 ± 0.13 | Q -0.048 ± 0.11 | S -0.061 ± 0.066 | R -0.037 ± 0.074 | M -0.21 ± 0.11 | D -0.144 ± 0.084 | A -0.262 ± 0.066 | W -0.143 ± 0.1 | G -0.217 ± 0.049 | F -0.043 ± 0.081 | V -0.036 ± 0.061 | H -0.277 ± 0.22
R47: Y -0.286 ± 0.11 | E -0.043 ± 0.13 | Q -0.346 ± 0.38 | N -0.05 ± 0.2 | P 0.186 ± 0.083 | I 0.058 ± 0.092 | L 0.079 ± 0.071 | F -0.204 ± 0.11 | D 0.268 ± 0.16 | M -0.155 ± 0.17 | A 0.083 ± 0.093 | V 0.188 ± 0.09 | K 0.359 ± 0.075 | T 0.134 ± 0.12 | G 0.111 ± 0.083 | W -0.062 ± 0.11 | S 0.037 ± 0.072
C34: R -0.697 ± 0.089 | K -0.763 ± 0.14 | A -0.68 ± 0.12 | P -0.803 ± 0.12 | S -0.867 ± 0.11 | N -0.937 ± 0.15 | M -0.831 ± 0.14 | D -0.376 ± 0.16 | W -1.03 ± 0.2 | Q -0.644 ± 0.098 | E -0.608 ± 0.12 | G -0.726 ± 0.28 | T -0.703 ± 0.092 | F -1.12 ± 0.17 | H -0.368 ± 0.066 | L -0.805 ± 0.087
G42: P -0.151 ± 0.11 | I 0.193 ± 0.21 | D -0.044 ± 0.12 | N 0.334 ± 0.17 | Q 0.048 ± 0.13 | Y 0.067 ± 0.082 | R 0.315 ± 0.073 | M 0.096 ± 0.067 | T 0.017 ± 0.093 | L 0.062 ± 0.048 | F -0.029 ± 0.1 | V 0.069 ± 0.072 | H 0.245 ± 0.12 | W 0.29 ± 0.086 | S -0.051 ± 0.13 | C 0.065 ± 0.18 | E 0.25 ± 0.14
D51: F -0.203 ± 0.25 | W -0.612 ± 0.22 | N -0.18 ± 0.12 | C -0.094 ± 0.12 | L -0.332 ± 0.09 | S 0.07 ± 0.074 | A 0.142 ± 0.093 | G 0.088 ± 0.098 | E 0.029 ± 0.1 | R 0.013 ± 0.088 | T -0.004 ± 0.11 | K -0.216 ± 0.34 | P -0.289 ± 0.38 | I -0.135 ± 0.18 | H -0.169 ± 0.15 | Y 0.177 ± 0.1 | Q 0.135 ± 0.13 | M -0.367 ± 0.15
V35: W -0.61 ± 0.16 | I 0.159 ± 0.066 | A -0.058 ± 0.07 | C -0.113 ± 0.12 | K -0.407 ± 0.077 | M -0.043 ± 0.066 | F -0.225 ± 0.083 | E -0.602 ± 0.1 | S -0.403 ± 0.069 | Y -0.707 ± 0.12 | G -0.333 ± 0.083 | P -0.345 ± 0.083 | R -0.387 ± 0.07 | T -0.095 ± 0.074 | D -0.351 ± 0.094 | Q -0.183 ± 0.1 | N -0.171 ± 0.099
L45: W -0.14 ± 0.094 | P -0.014 ± 0.094 | Y -0.055 ± 0.095 | H 0.152 ± 0.091 | C -0.062 ± 0.097 | S 0.033 ± 0.07 | E 0.075 ± 0.11 | I -0.214 ± 0.24 | K -0.173 ± 0.14 | F -0.295 ± 0.15 | R -0.005 ± 0.064 | V 0.016 ± 0.064 | M -0.096 ± 0.11 | T -0.08 ± 0.15 | D -0.01 ± 0.13 | G -0.068 ± 0.059
G49: W -0.462 ± 0.17 | S 0.173 ± 0.19 | K 0.163 ± 0.16 | N 0.11 ± 0.16 | F -0.243 ± 0.17 | L -0.089 ± 0.16 | M -0.002 ± 0.095 | A 0.052 ± 0.11 | E 0.283 ± 0.13 | Y 0.01 ± 0.26 | I -0.016 ± 0.12 | R -0.066 ± 0.087 | C -0.216 ± 0.4 | H 0.1 ± 0.11 | D -0.299 ± 0.18 | V -0.199 ± 0.2 | T -0.047 ± 0.1 | Q -0.145 ± 0.22
R41: G 0.037 ± 0.058 | M -0.05 ± 0.088 | C 0.062 ± 0.08 | Y -0.065 ± 0.17 | A 0.075 ± 0.082 | W -0.443 ± 0.16 | V 0.075 ± 0.068 | D 0.347 ± 0.2 | T -0.099 ± 0.094 | S 0.041 ± 0.085 | F -0.133 ± 0.15 | P 0.135 ± 0.093 | L -0.078 ± 0.071 | I -0.157 ± 0.13 | Q -0.193 ± 0.24 | E 0.085 ± 0.11 | N 0.24 ± 0.12 | K -0.008 ± 0.1
S38: Y -0.193 ± 0.1 | G 0.03 ± 0.1 | N -0.245 ± 0.34 | L -0.076 ± 0.059 | K -0.17 ± 0.11 | C -0.166 ± 0.16 | E -0.146 ± 0.13 | F -0.238 ± 0.13 | A -0.053 ± 0.13 | Q -0.251 ± 0.13 | I 0.155 ± 0.13 | H -0.033 ± 0.15 | D 0.197 ± 0.081 | V 0.071 ± 0.067 | P 0.001 ± 0.065 | M 0.118 ± 0.12 | W -0.109 ± 0.2 | R -0.13 ± 0.056 | T 0.027 ± 0.071
G32: T 0.084 ± 0.073 | Q -0.054 ± 0.084 | W 0.05 ± 0.069 | A 0.067 ± 0.075 | F -0.016 ± 0.1 | D 0.045 ± 0.097 | L 0.025 ± 0.046 | Y -0.421 ± 0.18 | P -0.155 ± 0.067 | R 0.026 ± 0.05 | V -0.055 ± 0.059 | I 0.169 ± 0.071 | S -0.036 ± 0.045 | H -0.009 ± 0.13 | E 0.022 ± 0.05 | N -0.179 ± 0.1 | M -0.054 ± 0.045
L44: K 0.048 ± 0.079 | I -0.238 ± 0.12 | C -0.026 ± 0.065 | Q 0.047 ± 0.081 | P 0.092 ± 0.06 | M 0.029 ± 0.14 | W -0.015 ± 0.075 | D -0.063 ± 0.085 | A 0.03 ± 0.058 | Y -0.028 ± 0.08 | N 0.121 ± 0.065 | T -0.069 ± 0.11 | R 0.08 ± 0.049 | F 0.097 ± 0.067 | V -0.045 ± 0.062 | S 0.021 ± 0.056 | H 0.108 ± 0.15 | G 0.08 ± 0.061
I37: L -0.054 ± 0.062 | G -0.122 ± 0.053 | S -0.133 ± 0.072 | F -0.095 ± 0.097 | Q 0.091 ± 0.066 | A -0.127 ± 0.061 | W 0.061 ± 0.049 | V -0.12 ± 0.072 | T 0.062 ± 0.09 | D -0.447 ± 0.21 | K 0.168 ± 0.097 | H -0.076 ± 0.14 | C -0.113 ± 0.12 | M -0.208 ± 0.11 | Y 0.094 ± 0.086 | E -0.054 ± 0.07 | P -0.253 ± 0.088 | R -0.017 ± 0.057
A40: L 0.043 ± 0.05 | H -0.182 ± 0.25 | C 0.151 ± 0.1 | S -0.022 ± 0.084 | T -0.077 ± 0.085 | Q -0.315 ± 0.14 | V -0.146 ± 0.06 | R -0.205 ± 0.093 | M 0.004 ± 0.082 | D -0.019 ± 0.071 | F -0.262 ± 0.086 | G -0.11 ± 0.068 | Y -0.094 ± 0.12 | P -0.143 ± 0.11 | N -0.434 ± 0.28 | W -0.193 ± 0.07
G36: A -0.153 ± 0.089 | Y -0.066 ± 0.069 | P -0.425 ± 0.13 | I -0.15 ± 0.096 | D 0.038 ± 0.082 | V -0.173 ± 0.059 | E 0.057 ± 0.072 | H -0.111 ± 0.14 | L -0.135 ± 0.061 | M 0.009 ± 0.062 | C -0.122 ± 0.092 | W -0.469 ± 0.1 | R -0.072 ± 0.047 | S -0.002 ± 0.058 | F -0.256 ± 0.12 | Q 0.013 ± 0.084
Y52: C -0.275 ± 0.44
